Source: patent US12129294B2, “Methods of treatment of diseases in which IL-13 activity is detrimental using anti-IL-13 antibodies” (AbbVie Inc., priority 2016, dated 2024)

What was measured:
[1] = tested on: subjects with symptomatic eosinophilic esophagitis (EoE); assay: Phase 2 study in EoE patients: peak esophageal eosinophil count; type: in vivo, human; conditions: for peak esophageal eosinophil count, Mean change / peak esophageal eosinophil count, LSMD versus placebo: Change to Week 16; for peak esophageal eosinophil count, LSMD versus placebo: ANCOVA
Description: North America and Switzerland. […] Safety was monitored throughout the study. […] The study was powered for the primary endpoint. […] To maximize consistency, biopsies were obtained from proximal and distal esophagus (i.e., 4 biopsy fragments from each level) at screening. Additional biopsies from mid-esophagus was encouraged and effort was made to obtain subsequent biopsies from the same levels. The biopsies were blinded and read by single central pathologist. To be eligible for trial, subjects were evaluated for peak eosinophil count of ≥15/HPF, from 2 of 3 (proximal, mid-, and/or distal) levels of the esophagus at the screening endoscopy. Next, the effectiveness of RPC4046 (over placebo) in lowering peak esophageal eosinophil count in EoE subjects at week 16 was analyzed.

[2] = tested on: subjects with symptomatic eosinophilic esophagitis (EoE); assay: Phase 2 study in EoE patients: subject's global assessment of disease severity; type: in vivo, human; conditions: for subject's global assessment of disease severity, Mean change / subject's global assessment of disease severity, LSMD versus placebo: Change to Week 16; for subject's global assessment of disease severity, LSMD versus placebo: ANCOVA
Protocol: North America and Switzerland. […] Safety was monitored throughout the study. […] The study was powered for the primary endpoint. […] Still further, the effectiveness of RPC4046 (over placebo) in lowering a subject's global assessment of disease severity at week 16 was analyzed.

human type IL-13 = human type IL-13 (Homo sapiens, UniProt P35225, Q144R); conditions: see US patent pub. No. 2014/0341913; cited from earlier work
Chain of human type IL-13 (P35225 15-146 Q144R limits assumed): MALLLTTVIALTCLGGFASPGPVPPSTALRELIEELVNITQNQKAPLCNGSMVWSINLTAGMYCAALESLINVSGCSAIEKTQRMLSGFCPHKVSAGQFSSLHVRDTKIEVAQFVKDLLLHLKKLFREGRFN

B1: RPC4046: recombinant humanized, high-affinity, selective anti-IL-13 monoclonal antibody; heavy chain variable region SEQ ID NO: 2, light chain variable region SEQ ID NO: 3 (antibody, V domains shown)
VH: EVTLRESGPGLVKPTQTLTLTCTLYGFSLSTSDMGVDWIRQPPGKGLEWLAHIWWDDVKRYNPALKSRLTISKDTSKNQVVLKLTSVDPVDTATYYCARTVSSGYIYYAMDYWGQGTLVTVSS
VL: DIQMTQSPSSLSASVGDRVTISCRASQDIRNYLNWYQQKPGKAPKLLIFYTSKLHSGVPSRFSGSGSGTDYTLTISSLQPEDIATYYCQQGNTLPLTFGGGTKVEIK
[1]; 180 mg, Baseline
  peak esophageal eosinophil count, Mean: 131.9 cells/hpf
  peak esophageal eosinophil count, Median: 113.0 cells/hpf
[1]; 180 mg
  peak esophageal eosinophil count, Mean change: −106.6 cells/hpf
  peak esophageal eosinophil count, LSMD versus placebo: −80.6 cells/hpf
[1]; 180 mg, Week 16
  peak esophageal eosinophil count, Mean: 28.9 cells/hpf
  peak esophageal eosinophil count, Median: 15.0 cells/hpf
[1]; 360 mg, Baseline
  peak esophageal eosinophil count, Mean: 139.4 cells/hpf
  peak esophageal eosinophil count, Median: 132.0 cells/hpf
[1]; 360 mg
  peak esophageal eosinophil count, Mean change: −111.3 cells/hpf
  peak esophageal eosinophil count, LSMD versus placebo: −79.8 cells/hpf
[1]; 360 mg, Week 16
  peak esophageal eosinophil count, Mean: 31.3 cells/hpf
  peak esophageal eosinophil count, Median: 15.0 cells/hpf
[1]; both low (180 mg) and high dose (360 mg)
  lowering of esophageal eosinophil counts over placebo at week 16: achieved statistical significance
[2]; 180 mg, Baseline
  subject's global assessment of disease severity, Mean: 5.0
  subject's global assessment of disease severity, Median: 5.0
[2]; 180 mg
  subject's global assessment of disease severity, Mean change: −2.0
  subject's global assessment of disease severity, LSMD versus placebo: −0.9
[2]; 180 mg, Week 16
  subject's global assessment of disease severity, Mean: 2.8
  subject's global assessment of disease severity, Median: 3.0
[2]; 360 mg, Baseline
  subject's global assessment of disease severity, Mean: 5.4
  subject's global assessment of disease severity, Median: 5.0
[2]; 360 mg
  subject's global assessment of disease severity, Mean change: −2.8
  subject's global assessment of disease severity, LSMD versus placebo: −1.3
[2]; 360 mg, Week 16
  subject's global assessment of disease severity, Mean: 2.5
  subject's global assessment of disease severity, Median: 2.0
[2]; treatment arm, 180 mg and 360 mg, week 16
  subject's global assessment of disease severity at week 16 over placebo: dose-dependent reduction
Human type IL-13
  binding affinity to helices A and D of interleukin 13 (IL-13): binds with great affinity
